In US20190185537A1 (AstraZeneca / MedImmune, published 2019):
Numbered stars: 1 amine (or outer) side, 2 acyl side, 3 side chain; on linkers, the order of the positions; unused ones are H or OH. Side chains are listed from the residue outwards. Ends that are not written are not given here. * marks the point of attachment. γGlu = O=C(O)[C@H](CCC(=O)[*:2])N[*:1]; Palmitoyl = CCCCCCCCCCCCCCCC(=O)*

T1: human glucose-dependent insulinotropic peptide (gastric inhibitory polypeptide) receptor (human) (UniProt P48546)
T1 sequence (looked up): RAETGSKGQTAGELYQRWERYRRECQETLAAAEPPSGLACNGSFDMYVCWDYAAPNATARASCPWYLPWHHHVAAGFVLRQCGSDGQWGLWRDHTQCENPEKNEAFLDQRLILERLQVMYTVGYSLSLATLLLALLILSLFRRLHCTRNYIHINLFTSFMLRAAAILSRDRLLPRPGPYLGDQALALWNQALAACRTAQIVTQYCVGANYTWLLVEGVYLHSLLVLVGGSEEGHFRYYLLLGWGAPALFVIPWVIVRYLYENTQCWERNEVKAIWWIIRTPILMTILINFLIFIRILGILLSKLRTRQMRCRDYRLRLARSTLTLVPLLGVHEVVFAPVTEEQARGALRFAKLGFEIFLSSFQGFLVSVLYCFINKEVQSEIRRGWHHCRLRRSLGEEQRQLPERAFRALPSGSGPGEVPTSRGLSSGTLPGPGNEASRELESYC

B1: g823 (peptide)
peptide: HSQGTFTSDYSRYLDSK([γGlu-Palmitoyl])RARDFVEWLVAGG-NH2
modifications: N-terminus assumed
SMILES: CCCCCCCCCCCCCCCC(=O)N[C@@H](CCC(=O)NCCCC[C@H](NC(=O)[C@H](CO)NC(=O)[C@H](CC(=O)O)NC(=O)[C@H](CC(C)C)NC(=O)[C@H](Cc1ccc(O)cc1)NC(=O)[C@H](CCCNC(=N)N)NC(=O)[C@H](CO)NC(=O)[C@H](Cc1ccc(O)cc1)NC(=O)[C@H](CC(=O)O)NC(=O)[C@H](CO)NC(=O)[C@@H](NC(=O)[C@H](Cc1ccccc1)NC(=O)[C@@H](NC(=O)CNC(=O)[C@H](CCC(N)=O)NC(=O)[C@H](CO)NC(=O)[C@@H](N)Cc1c[nH]cn1)[C@@H](C)O)[C@@H](C)O)C(=O)N[C@@H](CCCNC(=N)N)C(=O)N[C@@H](C)C(=O)N[C@@H](CCCNC(=N)N)C(=O)N[C@@H](CC(=O)O)C(=O)N[C@@H](Cc1ccccc1)C(=O)N[C@H](C(=O)N[C@@H](CCC(=O)O)C(=O)N[C@@H](Cc1c[nH]c2ccccc12)C(=O)N[C@@H](CC(C)C)C(=O)N[C@H](C(=O)N[C@@H](C)C(=O)NCC(=O)NCC(N)=O)C(C)C)C(C)C)C(=O)O
B2: g717 (peptide)
peptide: HSQGTFTSDK([γGlu-Palmitoyl])SKYLDSRRAQDFVQWLEAGG-NH2
modifications: N-terminus assumed
SMILES: CCCCCCCCCCCCCCCC(=O)N[C@@H](CCC(=O)NCCCC[C@H](NC(=O)[C@H](CC(=O)O)NC(=O)[C@H](CO)NC(=O)[C@@H](NC(=O)[C@H](Cc1ccccc1)NC(=O)[C@@H](NC(=O)CNC(=O)[C@H](CCC(N)=O)NC(=O)[C@H](CO)NC(=O)[C@@H](N)Cc1c[nH]cn1)[C@@H](C)O)[C@@H](C)O)C(=O)N[C@@H](CO)C(=O)N[C@@H](CCCCN)C(=O)N[C@@H](Cc1ccc(O)cc1)C(=O)N[C@@H](CC(C)C)C(=O)N[C@@H](CC(=O)O)C(=O)N[C@@H](CO)C(=O)N[C@@H](CCCNC(=N)N)C(=O)N[C@@H](CCCNC(=N)N)C(=O)N[C@@H](C)C(=O)N[C@@H](CCC(N)=O)C(=O)N[C@@H](CC(=O)O)C(=O)N[C@@H](Cc1ccccc1)C(=O)N[C@H](C(=O)N[C@@H](CCC(N)=O)C(=O)N[C@@H](Cc1c[nH]c2ccccc12)C(=O)N[C@@H](CC(C)C)C(=O)N[C@@H](CCC(=O)O)C(=O)N[C@@H](C)C(=O)NCC(=O)NCC(N)=O)C(C)C)C(=O)O
B3: g798 (peptide)
peptide: HSQGTFTSDK([γGlu-Palmitoyl])SKYLDSERARDFVAWLEAGG-NH2
modifications: N-terminus assumed
SMILES: CCCCCCCCCCCCCCCC(=O)N[C@@H](CCC(=O)NCCCC[C@H](NC(=O)[C@H](CC(=O)O)NC(=O)[C@H](CO)NC(=O)[C@@H](NC(=O)[C@H](Cc1ccccc1)NC(=O)[C@@H](NC(=O)CNC(=O)[C@H](CCC(N)=O)NC(=O)[C@H](CO)NC(=O)[C@@H](N)Cc1c[nH]cn1)[C@@H](C)O)[C@@H](C)O)C(=O)N[C@@H](CO)C(=O)N[C@@H](CCCCN)C(=O)N[C@@H](Cc1ccc(O)cc1)C(=O)N[C@@H](CC(C)C)C(=O)N[C@@H](CC(=O)O)C(=O)N[C@@H](CO)C(=O)N[C@@H](CCC(=O)O)C(=O)N[C@@H](CCCNC(=N)N)C(=O)N[C@@H](C)C(=O)N[C@@H](CCCNC(=N)N)C(=O)N[C@@H](CC(=O)O)C(=O)N[C@@H](Cc1ccccc1)C(=O)N[C@H](C(=O)N[C@@H](C)C(=O)N[C@@H](Cc1c[nH]c2ccccc12)C(=O)N[C@@H](CC(C)C)C(=O)N[C@@H](CCC(=O)O)C(=O)N[C@@H](C)C(=O)NCC(=O)NCC(N)=O)C(C)C)C(=O)O
B4: g867 (peptide)
peptide: HSQGTFTSDYSKYLDSK([γGlu-Palmitoyl])RARDFVAWLVAGG-NH2
modifications: N-terminus assumed
SMILES: CCCCCCCCCCCCCCCC(=O)N[C@@H](CCC(=O)NCCCC[C@H](NC(=O)[C@H](CO)NC(=O)[C@H](CC(=O)O)NC(=O)[C@H](CC(C)C)NC(=O)[C@H](Cc1ccc(O)cc1)NC(=O)[C@H](CCCCN)NC(=O)[C@H](CO)NC(=O)[C@H](Cc1ccc(O)cc1)NC(=O)[C@H](CC(=O)O)NC(=O)[C@H](CO)NC(=O)[C@@H](NC(=O)[C@H](Cc1ccccc1)NC(=O)[C@@H](NC(=O)CNC(=O)[C@H](CCC(N)=O)NC(=O)[C@H](CO)NC(=O)[C@@H](N)Cc1c[nH]cn1)[C@@H](C)O)[C@@H](C)O)C(=O)N[C@@H](CCCNC(=N)N)C(=O)N[C@@H](C)C(=O)N[C@@H](CCCNC(=N)N)C(=O)N[C@@H](CC(=O)O)C(=O)N[C@@H](Cc1ccccc1)C(=O)N[C@H](C(=O)N[C@@H](C)C(=O)N[C@@H](Cc1c[nH]c2ccccc12)C(=O)N[C@@H](CC(C)C)C(=O)N[C@H](C(=O)N[C@@H](C)C(=O)NCC(=O)NCC(N)=O)C(C)C)C(C)C)C(=O)O
B5: g824 (peptide)
peptide: HSQGTFTSDYSKYK([γGlu-Palmitoyl])DSRRARDFVEWLEAGG-NH2
modifications: N-terminus assumed
SMILES: CCCCCCCCCCCCCCCC(=O)N[C@@H](CCC(=O)NCCCC[C@H](NC(=O)[C@H](Cc1ccc(O)cc1)NC(=O)[C@H](CCCCN)NC(=O)[C@H](CO)NC(=O)[C@H](Cc1ccc(O)cc1)NC(=O)[C@H](CC(=O)O)NC(=O)[C@H](CO)NC(=O)[C@@H](NC(=O)[C@H](Cc1ccccc1)NC(=O)[C@@H](NC(=O)CNC(=O)[C@H](CCC(N)=O)NC(=O)[C@H](CO)NC(=O)[C@@H](N)Cc1c[nH]cn1)[C@@H](C)O)[C@@H](C)O)C(=O)N[C@@H](CC(=O)O)C(=O)N[C@@H](CO)C(=O)N[C@@H](CCCNC(=N)N)C(=O)N[C@@H](CCCNC(=N)N)C(=O)N[C@@H](C)C(=O)N[C@@H](CCCNC(=N)N)C(=O)N[C@@H](CC(=O)O)C(=O)N[C@@H](Cc1ccccc1)C(=O)N[C@H](C(=O)N[C@@H](CCC(=O)O)C(=O)N[C@@H](Cc1c[nH]c2ccccc12)C(=O)N[C@@H](CC(C)C)C(=O)N[C@@H](CCC(=O)O)C(=O)N[C@@H](C)C(=O)NCC(=O)NCC(N)=O)C(C)C)C(=O)O

molecular target: T1, human glucose-dependent insulinotropic peptide (gastric inhibitory polypeptide) receptor (human); assay: cell-based or functional assay

| cAMP EC50 (assay 1) [nM] | Binder |
| --- | --- |
| 84.2 | B1 |
| 1.48 | B2 |
| 1.51 | B3 |
| 41.7 | B4 |
| 102 | HSQGTFTSDYSKYLDSERARDFVAWLEAGG-NH2 [g840] |
| 57.4 | B5 |

molecular target: human glucagon receptor (human, UniProt P47871 26-477); assay: cell-based or functional assay
Sequence (P47871 26-477): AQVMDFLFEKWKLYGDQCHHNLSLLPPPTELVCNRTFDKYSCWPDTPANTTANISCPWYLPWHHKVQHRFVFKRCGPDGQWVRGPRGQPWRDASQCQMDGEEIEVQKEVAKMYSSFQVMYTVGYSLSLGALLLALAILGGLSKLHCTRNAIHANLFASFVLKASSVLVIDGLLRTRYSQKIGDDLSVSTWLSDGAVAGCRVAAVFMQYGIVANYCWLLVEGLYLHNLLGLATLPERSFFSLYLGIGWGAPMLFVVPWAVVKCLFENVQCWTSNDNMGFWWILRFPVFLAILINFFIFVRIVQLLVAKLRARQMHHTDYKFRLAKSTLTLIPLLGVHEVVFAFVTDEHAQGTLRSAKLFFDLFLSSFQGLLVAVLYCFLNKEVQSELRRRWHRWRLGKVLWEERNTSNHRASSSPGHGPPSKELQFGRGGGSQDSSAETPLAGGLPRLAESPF

| cAMP EC50 (assay 1) [pM] | Binder |
| --- | --- |
| 9.48 | B1 |
| 0.455 | B2 |
| 0.51 | B3 |
| 7.04 | B4 |
| 5.3 | HSQGTFTSDYSKYLDSERARDFVAWLEAGG-NH2 [g840] |
| 1.05 | B5 |

molecular target: human GLP-1 receptor (human, UniProt P43220 24-463); assay: cell-based or functional assay
Sequence (P43220 24-463): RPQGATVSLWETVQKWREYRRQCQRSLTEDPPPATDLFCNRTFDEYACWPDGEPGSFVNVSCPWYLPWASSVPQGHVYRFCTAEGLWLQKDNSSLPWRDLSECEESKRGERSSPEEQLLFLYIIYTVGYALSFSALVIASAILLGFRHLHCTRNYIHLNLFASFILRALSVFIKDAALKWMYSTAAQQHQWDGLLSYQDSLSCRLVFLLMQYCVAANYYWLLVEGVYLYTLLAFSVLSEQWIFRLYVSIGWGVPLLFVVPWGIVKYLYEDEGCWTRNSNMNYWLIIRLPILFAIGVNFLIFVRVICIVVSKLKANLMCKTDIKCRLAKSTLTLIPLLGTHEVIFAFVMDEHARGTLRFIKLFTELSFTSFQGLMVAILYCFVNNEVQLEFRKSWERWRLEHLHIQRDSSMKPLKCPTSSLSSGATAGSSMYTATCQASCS

| cAMP EC50 (assay 1) [pM] | Binder |
| --- | --- |
| 97.3 | B1 |
| 5.77 | B2 |
| 9.07 | B3 |
| 44.8 | B4 |
| 145 | HSQGTFTSDYSKYLDSERARDFVAWLEAGG-NH2 [g840] |
| 47.1 | B5 |
